Laboratory results taken from PMC5531539 (PLoS ONE, 2017).
Residue numbers refer to the chain shown, from its start. Each block holds one binder with its values, some of them ahead of it.

How the values were obtained:
Details in all cases: both partners purified
[1] = molecular target: T1, Recombinant soluble human HER2 extracellular domain (Homo sapiens, UniProt P04626); experiment: SPR; BioRad ProteOn XPR36; HER2 or VEGF amine-coupled to a GLC chip (about 150 RU); Fab as analyte, 3-fold dilutions from 30, 60 or 120 nM; 25C; PBS, 0.05% Tween 20, 3.4 mM EDTA; 1:1 binding model, KD from koff/kon
T1 construct: human HER2 (ErbB2), soluble extracellular domain; also called HER2 ectodomain; Receptor-tyrosine kinase ErbB2 soluble ectodomain; source: bought: eBioscience

[2] = molecular target: T2, Full-length isoform 165 of human VEGF-A (Homo sapiens, UniProt P15692-4, strain); experiment: as above
T2 construct: human vascular endothelial growth factor A, 165 amino acid isoform (VEGF165); also called VEGF165
T2 sequence (P15692 whole entry, looked up, stated change not applied, canonical isoform): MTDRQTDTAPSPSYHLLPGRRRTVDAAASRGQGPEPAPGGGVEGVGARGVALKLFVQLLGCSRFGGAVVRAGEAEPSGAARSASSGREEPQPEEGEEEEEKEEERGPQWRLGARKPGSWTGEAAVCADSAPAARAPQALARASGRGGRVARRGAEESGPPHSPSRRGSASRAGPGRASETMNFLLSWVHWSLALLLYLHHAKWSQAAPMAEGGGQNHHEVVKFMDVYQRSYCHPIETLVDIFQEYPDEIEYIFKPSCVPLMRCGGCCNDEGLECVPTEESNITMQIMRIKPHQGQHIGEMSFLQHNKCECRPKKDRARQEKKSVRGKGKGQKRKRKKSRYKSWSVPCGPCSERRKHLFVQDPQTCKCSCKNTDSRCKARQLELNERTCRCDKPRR

[3] = molecular target: T3, Full-length isoform 165 of human VEGF-A (Homo sapiens, UniProt P15692-4, strain); experiment: SPR; BioRad ProteOn XPR36, GLC chip; HER2 and VEGF amine-coupled (about 150 RU); Fab variants injected as analyte in 3-fold dilutions (top 30, 60 or 120 nM); 25C, PBS with 0.05% Tween 20 and 3.4 mM EDTA; 1:1 model; KWT/K uses the parent Fab's K of the same batch
T3 construct: vascular endothelial growth factor A, human, 165 amino acid isoform; also called VEGF165; source: produced recombinantly and purified
T3 sequence (P15692 whole entry, looked up, stated change not applied, canonical isoform): as above

- Kd [2]: 1.2 ± 0.2 nM
- koff [2]: 0.00034 s⁻¹
- kon [2]: 290000 M⁻¹ s⁻¹
B2: bH1 Fab HD98W HY33W HG99M (Fab, V domains shown)
VH: EVQLVESGGGLVQPGGSLRLSCAASGFNIKDTWIHWVRQAPGKGLEWVARIYPTNGYTRYADSVKGRFTISADTSKNTAYLQMNSLRAEDTAVYYCSRWGGWMFYAMDYWGQGTLVTVSS
VL: DIQMTQSPSSLSASVGDRVTITCRASQDIPRSISGYVAWYQQKPGKAPKLLIYWGSYLYSGVPSRFSGSGSGTDFTLTISSLQPEDFATYYCQQHYTTPPTFGQGTKVEIK
notes: as the heavy chain of m4 with the stated changes; numbers count on: Bostrom et al. [8]; as the light chain of m4; source: CHO-3E7, co-transfected, His-tag purified

- Kd [2]: 0.5 ± 0.1 nM
- koff [2]: 7e-05 s⁻¹
- kon [2]: 160000 M⁻¹ s⁻¹
B3: bH1 Fab HD98W HY33W HG99D (Fab, V domains shown)
VH: B2 VH with M103D
VL: B2 VL
notes: as the heavy chain of m4 with the stated changes; numbers count on: Bostrom et al. [8]; as the light chain of m4; also called best triple mutant (bH1-VEGF); source: CHO-3E7, co-transfected, His-tag purified

- binding result [3]: no binding
B4: bH1 Fab LS30dL (Fab, V domains shown)
VH: not shown
VL: B2 VL with S34L
notes: as the heavy chain of Sm3; bH1 Fab light chain, parent as in Sm3; numbers count on: Bostrom et al; source: CHO-3E7, co-transfected, purified (His tag)

- Kd [1]: 0.14 ± 0.09 nM
- koff [1]: 0.00028 s⁻¹
- kon [1]: 2.2e+06 M⁻¹ s⁻¹
B6: bH1 Fab HD98Y HD31K LI29K (Fab, V domains shown)
VH: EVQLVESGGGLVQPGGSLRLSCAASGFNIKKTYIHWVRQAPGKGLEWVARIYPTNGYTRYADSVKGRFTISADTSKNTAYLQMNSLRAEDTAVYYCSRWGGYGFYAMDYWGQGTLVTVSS
VL: B2 VL with I29K
notes: as the heavy chain of m4 with the stated changes; numbers count on: Bostrom et al. [8]; as the light chain of m4 with the stated change; source: CHO-3E7, co-transfected, His-tag purified

- binding result [3]: no binding
B7: bH1 Fab LS30dM (Fab, V domains shown)
VH: not shown
VL: B2 VL with S34M
notes: as for B4

- Kd [1]: 0.07 ± 0.01 nM
- koff [1]: 0.00025 s⁻¹
- kon [1]: 3.8e+06 M⁻¹ s⁻¹
B8: bH1 Fab HD98Y HD31K LI29R (Fab, V domains shown)
VH: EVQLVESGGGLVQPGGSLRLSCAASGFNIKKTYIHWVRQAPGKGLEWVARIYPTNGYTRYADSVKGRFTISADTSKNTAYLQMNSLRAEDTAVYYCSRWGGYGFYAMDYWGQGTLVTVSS
VL: B2 VL with I29R
notes: as the heavy chain of m4 with the stated changes; numbers count on: Bostrom et al. [8]; as the light chain of m4 with the stated change; also called best triple mutant (bH1-HER2); source: CHO-3E7, co-transfected, His-tag purified

Second part, the binder before the results:

B1: bH1 Fab (parent) (Fab, V domains shown)
VH: not shown
VL: B2 VL
notes: Fab heavy chain of bH1; numbers count on: Bostrom et al. [8]; Fab light chain of bH1; also called WT; source: CHO-3E7, co-transfected, His-tag purified
- Kd [1]: 3.6 ± 0.6 nM
- koff [1]: 0.0013 s⁻¹
- kon [1]: 370000 M⁻¹ s⁻¹
- Kd [2]: 44 ± 17 nM
- koff [2]: 0.009 s⁻¹
- kon [2]: 220000 M⁻¹ s⁻¹

B5: bH1 Fab HD98K HD31K LI29R (Fab, V domains shown)
VH: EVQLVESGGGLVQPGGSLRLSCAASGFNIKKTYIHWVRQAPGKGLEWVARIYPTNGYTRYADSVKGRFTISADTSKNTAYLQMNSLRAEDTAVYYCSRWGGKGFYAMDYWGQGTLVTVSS
VL: B2 VL with I29R
notes: as for B6
- Kd [1]: 0.11 ± 0.02 nM
- koff [1]: 0.00045 s⁻¹
- kon [1]: 4.4e+06 M⁻¹ s⁻¹

B9: bH1 Fab HD98F HD31K LI29K (Fab, V domains shown)
VH: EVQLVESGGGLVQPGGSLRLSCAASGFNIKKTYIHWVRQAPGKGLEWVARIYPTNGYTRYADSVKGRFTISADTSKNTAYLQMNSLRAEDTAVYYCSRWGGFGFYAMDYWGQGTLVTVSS
VL: B2 VL with I29K
notes: as for B6
- Kd [1]: 0.14 ± 0.05 nM
- koff [1]: 0.00029 s⁻¹
- kon [1]: 2.2e+06 M⁻¹ s⁻¹

B10: bH1 Fab HD98K HD31K LI29K (Fab, V domains shown)
VH: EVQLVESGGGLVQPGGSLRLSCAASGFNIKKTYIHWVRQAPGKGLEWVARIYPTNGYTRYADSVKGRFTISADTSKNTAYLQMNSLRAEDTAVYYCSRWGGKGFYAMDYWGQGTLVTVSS
VL: B2 VL with I29K
notes: as for B6
- Kd [1]: 0.15 ± 0.05 nM
- koff [1]: 0.00039 s⁻¹
- kon [1]: 2.3e+06 M⁻¹ s⁻¹

B11: bH1 Fab HD98F HD31K LI29R (Fab, V domains shown)
VH: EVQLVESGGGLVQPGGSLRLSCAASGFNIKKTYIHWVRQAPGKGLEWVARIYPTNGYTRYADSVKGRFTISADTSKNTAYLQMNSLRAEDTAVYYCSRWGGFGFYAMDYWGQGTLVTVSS
VL: B2 VL with I29R
notes: as for B6
- Kd [1]: 0.11 ± 0.02 nM
- koff [1]: 0.00029 s⁻¹
- kon [1]: 2.7e+06 M⁻¹ s⁻¹
